T1: EsCas13d, nuclease-dead (Eubacterium siraeum, UniProt B0MS50, R295A;H300A;R849A;H854A)
T1 sequence: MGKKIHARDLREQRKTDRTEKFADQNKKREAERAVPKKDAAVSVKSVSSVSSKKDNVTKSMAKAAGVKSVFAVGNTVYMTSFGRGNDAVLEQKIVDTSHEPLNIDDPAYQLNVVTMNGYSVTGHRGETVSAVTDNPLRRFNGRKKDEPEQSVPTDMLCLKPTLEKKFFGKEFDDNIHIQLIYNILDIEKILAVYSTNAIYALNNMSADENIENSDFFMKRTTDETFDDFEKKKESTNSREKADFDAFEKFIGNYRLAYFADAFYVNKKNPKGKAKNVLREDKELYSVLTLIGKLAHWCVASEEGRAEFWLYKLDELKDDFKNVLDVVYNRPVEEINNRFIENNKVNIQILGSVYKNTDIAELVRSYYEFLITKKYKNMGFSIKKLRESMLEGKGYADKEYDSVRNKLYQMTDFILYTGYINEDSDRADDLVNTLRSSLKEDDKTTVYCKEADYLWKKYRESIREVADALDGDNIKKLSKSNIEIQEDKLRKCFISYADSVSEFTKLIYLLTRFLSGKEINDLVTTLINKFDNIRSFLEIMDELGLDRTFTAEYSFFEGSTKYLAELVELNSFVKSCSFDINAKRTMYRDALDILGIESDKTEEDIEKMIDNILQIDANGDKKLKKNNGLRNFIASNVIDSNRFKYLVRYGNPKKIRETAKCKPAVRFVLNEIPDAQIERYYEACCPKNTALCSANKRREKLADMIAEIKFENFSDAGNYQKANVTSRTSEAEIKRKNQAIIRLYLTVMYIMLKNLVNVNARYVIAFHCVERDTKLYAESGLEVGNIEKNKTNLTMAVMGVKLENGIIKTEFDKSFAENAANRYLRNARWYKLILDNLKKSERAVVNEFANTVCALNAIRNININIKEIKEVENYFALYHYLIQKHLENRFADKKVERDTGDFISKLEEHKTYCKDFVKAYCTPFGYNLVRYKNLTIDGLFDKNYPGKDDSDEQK

B1: target 1 MT 5'PFS CCG 3'PFS ACU (mixed)
RNA 1: CACCCGUGCAAAAAUGCAGGGGUCUAAAACUGAGCGGAUAACCUCUCUAUGG
RNA 2: GGGAAUGGAUCCACAUCUACGAAUUCCCGCCAUAGAGAGGUUAUCCGCUCAACUAGAUCGGAAGAGCACACGU
B2: target 1 MT 5'PFS GCU 3'PFS CUG (mixed)
RNA 1: CACCCGUGCAAAAAUGCAGGGGUCUAAAACUGAGCGGAUAACCUCUCUAUGG
RNA 2: GGGAAUGGAUCCACAUCUACGAAUUCGCUCCAUAGAGAGGUUAUCCGCUCACUGAGAUCGGAAGAGCACACGU
B3: target 1 MT 5'PFS GUG 3'PFS ACA (mixed)
RNA 1: CACCCGUGCAAAAAUGCAGGGGUCUAAAACUGAGCGGAUAACCUCUCUAUGG
RNA 2: GGGAAUGGAUCCACAUCUACGAAUUCGUGCCAUAGAGAGGUUAUCCGCUCAACAAGAUCGGAAGAGCACACGU
B4: target 1 MT 5'PFS UGG 3'PFS ACG (mixed)
RNA 1: CACCCGUGCAAAAAUGCAGGGGUCUAAAACUGAGCGGAUAACCUCUCUAUGG
RNA 2: GGGAAUGGAUCCACAUCUACGAAUUCUGGCCAUAGAGAGGUUAUCCGCUCAACGAGAUCGGAAGAGCACACGU
B5: target 1 MT 5'PFS GUG 3'PFS ACG (mixed)
RNA 1: CACCCGUGCAAAAAUGCAGGGGUCUAAAACUGAGCGGAUAACCUCUCUAUGG
RNA 2: GGGAAUGGAUCCACAUCUACGAAUUCGUGCCAUAGAGAGGUUAUCCGCUCAACGAGAUCGGAAGAGCACACGU
B6: target 1 MT 5'PFS UGG 3'PFS ACU (mixed)
RNA 1: CACCCGUGCAAAAAUGCAGGGGUCUAAAACUGAGCGGAUAACCUCUCUAUGG
RNA 2: GGGAAUGGAUCCACAUCUACGAAUUCUGGCCAUAGAGAGGUUAUCCGCUCAACUAGAUCGGAAGAGCACACGU
B7: target 1 MT 5'PFS GGG 3'PFS UGU (mixed)
RNA 1: CACCCGUGCAAAAAUGCAGGGGUCUAAAACUGAGCGGAUAACCUCUCUAUGG
RNA 2: GGGAAUGGAUCCACAUCUACGAAUUCGGGCCAUAGAGAGGUUAUCCGCUCAUGUAGAUCGGAAGAGCACACGU
B8: target 1 MT 5'PFS GCU 3'PFS CUC (mixed)
RNA 1: CACCCGUGCAAAAAUGCAGGGGUCUAAAACUGAGCGGAUAACCUCUCUAUGG
RNA 2: GGGAAUGGAUCCACAUCUACGAAUUCGCUCCAUAGAGAGGUUAUCCGCUCACUCAGAUCGGAAGAGCACACGU
B9: target 1 insC 3' of 11,insG 3' of 9 (mixed)
RNA 1: CACCCGUGCAAAAAUGCAGGGGUCUAAAACUGAGCGGAUAACCUCUCUAUGG
RNA 2: GGGAAUGGAUCCACAUCUACGAAUUCGUACCAUAGAGAGGUCUAGUCCGCUCACCGAGAUCGGAAGAGCACACGU
B10: target 1 MT 5'PFS AGU 3'PFS CCG (mixed)
RNA 1: CACCCGUGCAAAAAUGCAGGGGUCUAAAACUGAGCGGAUAACCUCUCUAUGG
RNA 2: GGGAAUGGAUCCACAUCUACGAAUUCAGUCCAUAGAGAGGUUAUCCGCUCACCGAGAUCGGAAGAGCACACGU
B11: target 1 MT 5'PFS AGC 3'PFS AUA (mixed)
RNA 1: CACCCGUGCAAAAAUGCAGGGGUCUAAAACUGAGCGGAUAACCUCUCUAUGG
RNA 2: GGGAAUGGAUCCACAUCUACGAAUUCAGCCCAUAGAGAGGUUAUCCGCUCAAUAAGAUCGGAAGAGCACACGU
B12: target 1 MT 5'PFS GGC 3'PFS AGA (mixed)
RNA 1: CACCCGUGCAAAAAUGCAGGGGUCUAAAACUGAGCGGAUAACCUCUCUAUGG
RNA 2: GGGAAUGGAUCCACAUCUACGAAUUCGGCCCAUAGAGAGGUUAUCCGCUCAAGAAGAUCGGAAGAGCACACGU
B13: target 1 MT 5'PFS GCU 3'PFS CUU (mixed)
RNA 1: CACCCGUGCAAAAAUGCAGGGGUCUAAAACUGAGCGGAUAACCUCUCUAUGG
RNA 2: GGGAAUGGAUCCACAUCUACGAAUUCGCUCCAUAGAGAGGUUAUCCGCUCACUUAGAUCGGAAGAGCACACGU
B14: target 1 MT 5'PFS GUG 3'PFS ACU (mixed)
RNA 1: CACCCGUGCAAAAAUGCAGGGGUCUAAAACUGAGCGGAUAACCUCUCUAUGG
RNA 2: GGGAAUGGAUCCACAUCUACGAAUUCGUGCCAUAGAGAGGUUAUCCGCUCAACUAGAUCGGAAGAGCACACGU
B15: target 1 MT 5'PFS UUU 3'PFS CGU (mixed)
RNA 1: CACCCGUGCAAAAAUGCAGGGGUCUAAAACUGAGCGGAUAACCUCUCUAUGG
RNA 2: GGGAAUGGAUCCACAUCUACGAAUUCUUUCCAUAGAGAGGUUAUCCGCUCACGUAGAUCGGAAGAGCACACGU
B16: target 1 MT 5'PFS CAG 3'PFS AAG (mixed)
RNA 1: CACCCGUGCAAAAAUGCAGGGGUCUAAAACUGAGCGGAUAACCUCUCUAUGG
RNA 2: GGGAAUGGAUCCACAUCUACGAAUUCCAGCCAUAGAGAGGUUAUCCGCUCAAAGAGAUCGGAAGAGCACACGU
B17: target 1 MT 5'PFS GGU 3'PFS UUC (mixed)
RNA 1: CACCCGUGCAAAAAUGCAGGGGUCUAAAACUGAGCGGAUAACCUCUCUAUGG
RNA 2: GGGAAUGGAUCCACAUCUACGAAUUCGGUCCAUAGAGAGGUUAUCCGCUCAUUCAGAUCGGAAGAGCACACGU
B18: target 1 MT 5'PFS GCA 3'PFS CCG (mixed)
RNA 1: CACCCGUGCAAAAAUGCAGGGGUCUAAAACUGAGCGGAUAACCUCUCUAUGG
RNA 2: GGGAAUGGAUCCACAUCUACGAAUUCGCACCAUAGAGAGGUUAUCCGCUCACCGAGAUCGGAAGAGCACACGU
B19: target 1 MT 5'PFS GCA 3'PFS ACU (mixed)
RNA 1: CACCCGUGCAAAAAUGCAGGGGUCUAAAACUGAGCGGAUAACCUCUCUAUGG
RNA 2: GGGAAUGGAUCCACAUCUACGAAUUCGCACCAUAGAGAGGUUAUCCGCUCAACUAGAUCGGAAGAGCACACGU
B20: target 1 MT 5'PFS CAA 3'PFS UAC (mixed)
RNA 1: CACCCGUGCAAAAAUGCAGGGGUCUAAAACUGAGCGGAUAACCUCUCUAUGG
RNA 2: GGGAAUGGAUCCACAUCUACGAAUUCCAACCAUAGAGAGGUUAUCCGCUCAUACAGAUCGGAAGAGCACACGU
B21: target 1 MT 5'PFS GCU 3'PFS CUA (mixed)
RNA 1: CACCCGUGCAAAAAUGCAGGGGUCUAAAACUGAGCGGAUAACCUCUCUAUGG
RNA 2: GGGAAUGGAUCCACAUCUACGAAUUCGCUCCAUAGAGAGGUUAUCCGCUCACUAAGAUCGGAAGAGCACACGU
B22: target 1 MT 5'PFS GAA 3'PFS CGA (mixed)
RNA 1: CACCCGUGCAAAAAUGCAGGGGUCUAAAACUGAGCGGAUAACCUCUCUAUGG
RNA 2: GGGAAUGGAUCCACAUCUACGAAUUCGAACCAUAGAGAGGUUAUCCGCUCACGAAGAUCGGAAGAGCACACGU
B23: target 1 MT 5'PFS GCA 3'PFS ACG (mixed)
RNA 1: CACCCGUGCAAAAAUGCAGGGGUCUAAAACUGAGCGGAUAACCUCUCUAUGG
RNA 2: GGGAAUGGAUCCACAUCUACGAAUUCGCACCAUAGAGAGGUUAUCCGCUCAACGAGAUCGGAAGAGCACACGU
B24: target 1 MT 5'PFS CAA 3'PFS UAU (mixed)
RNA 1: CACCCGUGCAAAAAUGCAGGGGUCUAAAACUGAGCGGAUAACCUCUCUAUGG
RNA 2: GGGAAUGGAUCCACAUCUACGAAUUCCAACCAUAGAGAGGUUAUCCGCUCAUAUAGAUCGGAAGAGCACACGU
B25: target 1 MT 5'PFS CAA 3'PFS UAG (mixed)
RNA 1: CACCCGUGCAAAAAUGCAGGGGUCUAAAACUGAGCGGAUAACCUCUCUAUGG
RNA 2: GGGAAUGGAUCCACAUCUACGAAUUCCAACCAUAGAGAGGUUAUCCGCUCAUAGAGAUCGGAAGAGCACACGU
B26: target 1 MT 5'PFS GUG 3'PFS ACC (mixed)
RNA 1: CACCCGUGCAAAAAUGCAGGGGUCUAAAACUGAGCGGAUAACCUCUCUAUGG
RNA 2: GGGAAUGGAUCCACAUCUACGAAUUCGUGCCAUAGAGAGGUUAUCCGCUCAACCAGAUCGGAAGAGCACACGU
B27: target 1 insC 3' of 20,insC 3' of 20 (mixed)
RNA 1: CACCCGUGCAAAAAUGCAGGGGUCUAAAACUGAGCGGAUAACCUCUCUAUGG
RNA 2: GGGAAUGGAUCCACAUCUACGAAUUCGUACCACCUAGAGAGGUUAUCCGCUCACCGAGAUCGGAAGAGCACACGU

By Kd is commonly meant the free concentration of one partner at which half of the binding sites on the other are occupied at equilibrium, for simple one-to-one binding.

The data set addresses T1, EsCas13d, nuclease-dead. Nature of the data set: crRNA (strand 1, pre-loaded); Mg2+; 40 mM Tris-HCl pH 7.5, 150 mM NaCl, 6 mM MgCl2, 1 mM DTT, 0.1% Tween-20, 0.2 mg/ml BSA; 25 C; 10 min per concentration, then washed. The conditions noted are these: tags: His6-TwinStrep-SUMO cleaved; N-terminal SNAP kept (SNAP-Surface 488); label: 3' end held by stalled T7 RNA polymerase.
Regarding B1, the equilibrium dissociation constant (Kd) is ~4.9 nM.

The molecule B2 gave an equilibrium dissociation constant (Kd) of 92 ± 34 nM.

Regarding B3, the Kd worked out at 24.1 ± 2.35 nM.

With B4, the Kd came out at 54 ± 17.5 nM. Against the preceding molecule, the Kd is about 2.2-fold higher.

Consider B5, for which the affinity, expressed as Kd, was 15.4 ± 1 nM.

Turning to B6, the Kd was ~120 nM.

Molecule B7 displayed a dissociation constant Kd of 43 ± 7.5 nM.

B8 showed a Kd of 44 ± 14 nM.

As to B9, the Kd amounted to 31.8 ± 2 nM.

With B10, the Kd came out at 24.6 ± 7.6 nM.

B11 displayed a Kd of 56.5 ± 18.5 nM. This Kd lies about 2.3-fold higher than the previous one.

B12 yielded a Kd of 22.5 ± 5 nM.

Take B13: the affinity, expressed as Kd, was 26 ± 8 nM.

Molecule B14 displayed an equilibrium dissociation constant (Kd) of 11.5 ± 0.75 nM.

As for B15, the Kd is ~65 nM.

B16 gave a Kd of 28.5 ± 8 nM.

Regarding B17, the dissociation constant (Kd) came out at 36 ± 6 nM.

B18: the equilibrium dissociation constant (Kd) came to 18.5 ± 8 nM.

Consider B19, for which the equilibrium dissociation constant (Kd) was 18.5 ± 4.5 nM.

Regarding B20, the dissociation constant Kd is 7.65 ± 2.65 nM.

With B21, binding was put at a Kd of 53 ± 22 nM.

Take B22: the dissociation constant (Kd) was ~85 nM.

For the molecule B23, binding was put at a Kd of 19 ± 5.5 nM.

Regarding B24, the Kd is 34.5 ± 15 nM.

B25: the Kd turned out to be 17 ± 6.5 nM.

Consider B26, for which the Kd worked out at 12.4 ± 1.1 nM.

On to B27, for which the Kd turned out to be 44.7 ± 3.1 nM. Against the preceding molecule, the Kd is about 3.6-fold higher.
